From patent publication US20070161569A1 (GENERAL HOSPITAL, published 2007)
Non-standard residues stand in square brackets, D forms with d. No end group written: not given here. hArg = N=C(N)NCCCC[C@H](N)C(=O)O; Ac5c = NC1(C(=O)O)CCCC1; Deg = CCC(N)(CC)C(=O)O; Ac3c = NC1(C(=O)O)CC1; Aib = CC(C)(N)C(=O)O

How the values were obtained:
[1] = target: T1, recombinant P1R chimera expressed in HKRK-B28 cells (opossum P1R from the N-terminus to the mid region of … (opossum; rat, UniProt P25107 27-288; P25961 295-591, limits assumed); assay: competition binding to the P1R (HKRK-B28 cells by the FIG. 3 legend)
T1 construct: domain: N-terminus to the mid region of TM3;domain: mid region of TM3 to the C-terminus; also called PTH-1 receptor; receptor of HKRK-B28 cells
Description: Competition Binding. Binding reactions were performed with HKRK-B28 cells or in COS-7 cells in 24-well plates. The cells were rinsed with 0.5 mL of binding buffer, and then treated successively with 100 μL binding buffer, 100 μL of binding buffer containing various amounts of unlabeled competitor ligand, and 100 μL of binding buffer containing ca. 100,000 cpm of ¹²⁵I-[Aib^{1,3},Nle⁸,Gln¹⁰,Har¹¹,Ala¹²,Trp¹⁴,Arg¹⁹,Tyr²¹]rPTH(1-21) (SEQ. ID. NO. 36) (ca. 26 fmol; final volume=300 μL). Incubations were 4 to 6 h at 4° C., at which time near equilibrium conditions were attained. Cells were then placed on ice, the binding medium was removed, and the monolayer was rinsed three times with 0.5 mL of cold binding buffer. The cells were subsequently lysed with 0.5 mL 5N NaOH and counted for radioactivity. For each tracer and in each experiment, the non-specific binding was determined as the radioactivity that bound in the presence of the same unlabeled peptide at a concentration of 1 μM, and was ˜1% of total radioactivity added for each tracer. The maximum specific binding (B₀) was the total radioactivity bound in the absence of competing ligand, corrected for nonspecific binding, and for each tracer, ranged from 8% to 20% of the total radioactivity added. Nonlinear regression was used to calculate binding IC₅₀ values (see below). […]

[2] = target: T1, recombinant P1R chimera expressed in …; assay: cell-based or functional assay
[3] = target: T1, recombinant P1R chimera expressed in …; assay: competition binding on HKRK-B28 cells against 125I-PTH(1-21) tracer (SEQ ID NO 36)
Description: Incubations were 4 to 6 h at 4° C., at which time near equilibrium conditions were attained. Cells were then placed on ice, the binding medium was removed, and the monolayer was rinsed three times with 0.5 mL of cold binding buffer. The cells were subsequently lysed with 0.5 mL 5N NaOH and counted for radioactivity. For each tracer and in each experiment, the non-specific binding was determined as the radioactivity that bound in the presence of the same unlabeled peptide at a concentration of 1 μM, and was ˜1% of total radioactivity added for each tracer. The maximum specific binding (B₀) was the total radioactivity bound in the absence of competing ligand, corrected for nonspecific binding, and for each tracer, ranged from 8% to 20% of the total radioactivity added. Nonlinear regression was used to calculate binding IC₅₀ values (see below). Scatchard transformations of homologous competition binding data derived from studies with 26 fmol of ¹²⁵I-[Aib^{1,3},Nle⁸,Gln¹⁰,Har¹¹,Ala¹²,Trp¹⁴, Arg¹⁹,Tyr²¹]rPTH(1-21) (SEQ. ID. NO. 36) were employed for estimations of apparent equilibrium dissociation constant (kDapps) and total number of ligand binding sites (Bₘₐₓ), assuming a single class of binding sites and equal affinities of the iodinated and non iodinated ligand. […]

[4] = target: T1, recombinant P1R chimera expressed in …; assay: competition binding on B28 cells against 125I-PTH(1-21) tracer (SEQ ID NO 36)
Description: Competition Binding. Binding reactions were performed with HKRK-B28 cells or in COS-7 cells in 24-well plates. The cells were rinsed with 0.5 mL of binding buffer, and then treated successively with 100 μL binding buffer, 100 μL of binding buffer containing various amounts of unlabeled competitor ligand, and 100 μL of binding buffer containing ca. 100,000 cpm of ¹²⁵I-[Aib^{1,3},Nle⁸,Gln¹⁰,Har¹¹,Ala¹²,Trp¹⁴,Arg¹⁹,Tyr²¹]rPTH(1-21) (SEQ. ID. NO. 36) (ca. 26 fmol; final volume=300 μL). Incubations were 4 to 6 h at 4° C., at which time near equilibrium conditions were attained. Cells were then placed on ice, the binding medium was removed, and the monolayer was rinsed three times with 0.5 mL of cold binding buffer. The cells were subsequently lysed with 0.5 mL 5N NaOH and counted for radioactivity. For each tracer and in each experiment, the non-specific binding was determined as the radioactivity that bound in the presence of the same unlabeled peptide at a concentration of 1 μM, and was ˜1% of total radioactivity added for each tracer. The maximum specific binding (B₀) was the total radioactivity bound in the absence of competing ligand, corrected for nonspecific binding, and for each tracer, ranged from 8% to 20% of the total radioactivity added. Nonlinear regression was used to calculate binding IC₅₀ values (see below). Scatchard transformations of homologous competition binding data derived from studies with 26 fmol of ¹²⁵I-[Aib^{1,3},Nle⁸,Gln¹⁰,Har¹¹,Ala¹²,Trp¹⁴, Arg¹⁹,Tyr²¹]rPTH(1-21) (SEQ. ID. NO. 36) were employed for estimations of apparent equilibrium dissociation constant (kDapps) and total number of ligand binding sites (Bₘₐₓ), assuming a single class of binding sites and equal affinities of the iodinated and non iodinated ligand.

[5] = target: T2, P1R-delNt, a recombinant human PTH-1 receptor construct in which most of the amino-terminal extracellular … (human, UniProt Q03431 23-593, limits assumed); assay: cell-based or functional assay
T2 sequence (looked up): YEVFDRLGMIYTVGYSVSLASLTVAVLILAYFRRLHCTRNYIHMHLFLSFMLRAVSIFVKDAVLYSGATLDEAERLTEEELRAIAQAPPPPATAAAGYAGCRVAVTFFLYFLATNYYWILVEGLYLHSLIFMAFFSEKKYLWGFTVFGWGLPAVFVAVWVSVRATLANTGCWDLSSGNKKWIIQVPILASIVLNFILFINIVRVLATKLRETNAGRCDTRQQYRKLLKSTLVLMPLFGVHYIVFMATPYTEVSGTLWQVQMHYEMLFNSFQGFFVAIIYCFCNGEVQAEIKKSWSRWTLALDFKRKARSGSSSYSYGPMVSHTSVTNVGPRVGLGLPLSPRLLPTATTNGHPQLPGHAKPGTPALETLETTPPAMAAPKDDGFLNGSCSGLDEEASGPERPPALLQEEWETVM

[6] = target: T3, wild-type human P1R transiently expressed in COS-7 cells (human, UniProt Q03431 27-593); assay: cell-based or functional assay
T3 sequence (looked up): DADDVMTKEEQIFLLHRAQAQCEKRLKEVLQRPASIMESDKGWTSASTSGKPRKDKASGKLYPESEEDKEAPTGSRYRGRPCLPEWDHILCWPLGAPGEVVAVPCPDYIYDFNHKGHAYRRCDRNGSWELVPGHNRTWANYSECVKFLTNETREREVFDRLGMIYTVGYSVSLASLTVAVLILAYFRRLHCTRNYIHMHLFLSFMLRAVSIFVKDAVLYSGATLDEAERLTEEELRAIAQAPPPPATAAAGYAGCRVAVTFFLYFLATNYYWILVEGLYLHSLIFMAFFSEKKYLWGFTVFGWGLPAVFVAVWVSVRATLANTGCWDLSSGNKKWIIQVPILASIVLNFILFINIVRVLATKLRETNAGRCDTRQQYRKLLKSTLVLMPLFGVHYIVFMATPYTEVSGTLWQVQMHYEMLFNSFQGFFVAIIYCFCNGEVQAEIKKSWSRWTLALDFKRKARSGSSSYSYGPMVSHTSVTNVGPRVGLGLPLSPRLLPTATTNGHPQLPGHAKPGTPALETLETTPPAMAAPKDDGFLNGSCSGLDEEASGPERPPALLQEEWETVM

T1 sequence (P25107 other isoform, or with tags, fused parts or gaps limits assumed): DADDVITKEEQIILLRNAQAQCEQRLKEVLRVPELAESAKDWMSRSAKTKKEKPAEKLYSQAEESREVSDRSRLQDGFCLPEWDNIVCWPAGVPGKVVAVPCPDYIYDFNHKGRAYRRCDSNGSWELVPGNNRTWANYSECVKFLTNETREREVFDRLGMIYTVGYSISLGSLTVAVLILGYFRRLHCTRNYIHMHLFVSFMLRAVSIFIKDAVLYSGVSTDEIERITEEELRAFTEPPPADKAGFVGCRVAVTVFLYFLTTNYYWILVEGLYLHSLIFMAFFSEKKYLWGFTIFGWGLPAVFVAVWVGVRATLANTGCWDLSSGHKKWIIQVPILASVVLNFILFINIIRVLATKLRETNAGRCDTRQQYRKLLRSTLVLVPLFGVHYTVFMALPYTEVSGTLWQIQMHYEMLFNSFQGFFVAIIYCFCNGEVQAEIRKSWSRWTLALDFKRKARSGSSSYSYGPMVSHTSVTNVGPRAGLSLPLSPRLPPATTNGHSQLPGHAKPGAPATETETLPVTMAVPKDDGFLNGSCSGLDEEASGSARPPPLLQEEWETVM

[Ac5c]V[Ac5c]EIQLMHQ[hArg]AKW-NH2 (also called [Ac5c^1,3,M]PTH(1-14)) [[Ac5c^1,3,Gln^10,Har^11,Ala^12,Trp^14]PTH(1-14)NH2]
fold higher affinity than the parent peptide [1]: 20 fold | cAMP signaling, fold more potent than the parent peptide [2]: 30 fold

B1: [M]PTH(1-14) analog in which alanine-3 is substituted with 1-aminocyclopropane-1-carboxylic acid (Ac3c) (peptide)
peptide: AV[Ac3c]EIQLMHQ[hArg]AKW-NH2
modifications: N-terminus assumed
SMILES: CC[C@H](C)[C@H](NC(=O)[C@H](CCC(=O)O)NC(=O)C1(NC(=O)[C@@H](NC(=O)[C@H](C)N)C(C)C)CC1)C(=O)N[C@@H](CCC(N)=O)C(=O)N[C@@H](CC(C)C)C(=O)N[C@@H](CCSC)C(=O)N[C@@H](Cc1c[nH]cn1)C(=O)N[C@@H](CCC(N)=O)C(=O)N[C@@H](CCCCNC(=N)N)C(=O)N[C@@H](C)C(=O)N[C@@H](CCCCN)C(=O)N[C@@H](Cc1c[nH]c2ccccc12)C(N)=O
notes: also called Ac3c^3-containing analog; Ac3c-3
fold reduced affinity relative to the parent analog [3]: ~10 fold | cAMP-stimulating potency, fold increase over the parent analog [2]: < 2 fold | fold lower affinity than [M]PTH(1-14) [4]: 14 fold

B2: [Deg^1,3,Gln^10,Har^11,Ala^12,Trp^14]PTH(1-14)NH2 (peptide)
peptide: [Deg]V[Deg]EIQLMHQ[hArg]AKW-NH2
modifications: N-terminus assumed
SMILES: CC[C@H](C)[C@H](NC(=O)[C@H](CCC(=O)O)NC(=O)C(CC)(CC)NC(=O)[C@@H](NC(=O)C(N)(CC)CC)C(C)C)C(=O)N[C@@H](CCC(N)=O)C(=O)N[C@@H](CC(C)C)C(=O)N[C@@H](CCSC)C(=O)N[C@@H](Cc1c[nH]cn1)C(=O)N[C@@H](CCC(N)=O)C(=O)N[C@@H](CCCCNC(=N)N)C(=O)N[C@@H](C)C(=O)N[C@@H](CCCCN)C(=O)N[C@@H](Cc1c[nH]c2ccccc12)C(N)=O
notes: also called [Deg^1,3,M]PTH(1-14)
fold higher affinity than the parent peptide [1]: 50 fold | cAMP EC50 in LdelNt-2 cells [5]: 1400 nM | cAMP Emax over basal in LdelNt-2 cells (partial agonist behavior) [5]: 23 fold

[Ac5c]V[Aib]EIQLMHQ[hArg]AKW-NH2 (also called [Ac5c^1,Aib^3,M]PTH(1-14)) [[Ac5c^1,Aib^3,Gln^10,Har^11,Ala^12,Trp^14]PTH(1-14)NH2]
cAMP potency (EC50) [2]: 0.9 nM | increase in cAMP levels relative to basal, peptide at 10 nM, HKRK-B28 cells [2]: 38 fold | stimulating adenylyl cyclase, fold more potent than [Aib^1,3,M]PTH(1-14) [2]: 2 fold | stimulating phospholipase C, fold more potent than [Aib^1,3,M]PTH(1-14) [6]: 2 fold | cAMP EC50 in LdelNt-2 cells [5]: 6.4 nM | increase in cAMP accumulation in LdelNt-2 cells [5]: 70 fold | IC50 [4]: 100 nM | fold more potent than [Aib^1,3,M]PTH(1-14) for inhibiting tracer binding [4]: 2 fold
